From article PMC7423924, “A fluorogenic cyclic peptide for imaging and quantification of drug-induced apoptosis” (Nature Communications, 2020)
Values joined by “and” are separate entries in the source; they are usually repeats but may differ in a detail not shown here. Equal entries are not always repeated.

System: neutrophils (myeloid)
Assay: Flow cytometry staining before and after induction of apoptosis, neutrophils
Type: cell-based, human
Conditions: single replicates, listed as Ann V
Description: Fig. 2 Apo-15 binds to apoptotic cells of different origin in multiple environments. a Representative fluorescence confocal microscopy images (from three independent experiments) human apoptotic (yellow arrows) and viable (white arrows) cells from different lineages: BL-2 (lymphoid), neutrophils (myeloid), and primary airway epithelial cells (epithelial). Cells were incubated with Apo-15 (100 nM, green), AF647-Annexin V (5 nM, red), and Hoechst 33342 (7 μM, blue) for 10 min and imaged under a fluorescence confocal microscope (λexc.: 405, 488, 633 nm: λem.: 450, 525, 670 nm). Scale bars: 10 µm. b Divalent cation-independent binding of Apo-15 to apoptotic cells of different origin (top plots: lymphoid cells, bottom plots: myeloid cells). Mixtures of apoptotic (highlighted in green dots) and viable cells (highlighted in black dots) were stained with AF647-Annexin V (25 nM) and Apo-15 (100 nM) in the presence of 2 mM CaCl2 (left) or 2.5 mM EDTA (right). Representative histograms showing Apo-15 binding (x-axis) vs AF647-Annexin V binding (y-axis) acquired on 5L LSR flow cytometer (n = 5). c Cells were sorted on their Apo-15 positivity (green populations in panel b) or negativity (black populations in panel b). Gating strategy in Supplementary Fig. 7. Morphological analysis (four independent images from two independent experiments) of cytocentrifuge preparations of Apo-15-positive and Apo-15-negative cells under brightfield microscopy (scale bar: 10 µm). d Quantification of fluorescence staining of neutrophils (myeloid, n ≥ 5), BL-2 cells (lymphoid, n ≥ 3) and primary airway epithelial cells (epithelial, n = 5) before and after induction of apoptosis and upon treatment with Apo-15 and AF647-Annexin V. Data acquired on 5 L LSR flow cytometer and presented as mean values ± SEM. P values obtained from two-tailed t tests. Source data (in d) are provided as a Source data file. […]
Work with human peripheral blood leukocytes complied with all relevant ethical regulations and informed consent was obtained. […]

B1: Annexin V: fluorescently-labeled (AF647) annexin V, PS-binding protein (protein, UniProt P08758 2-320, looked up)
Annexin A5: AQVLRGTVTDFPGFDERADAETLRKAMKGLGTDEESILTLLTSRSNAQRQEISAAFKTLFGRDLLDDLKSELTGKFEKLIVALMKPSRLYDAYELKHALKGAGTNEKVLTEIIASRTPEELRAIKQVYEEEYGSSLEDDVVGDTSGYYQRMLVVLLQANRDPDAGIDEAQVEQDAQALFQAGELKWGTDEEKFITIFGTRSVSHLRKVFDKYMTISGFQIEETIDRETSGNLEQLLLAVVKSIRSIPAYLAETLYYAMKGAGTDDHTLIRVMVSRSEIDLFNIRKEFRKNFATSLYSMIKGDTSGDYKKALLLLCGEDD
modifications: AF647 label
Stained cells (flow cytometry) (neutrophils 0 h, before induction of apoptosis): 2.6% and 3.7% and 2.0% and 1.4% and 1.1%
Stained cells (flow cytometry) (neutrophils 18 h, EDTA (2.5 mM)): 0.0% and 0.5%
Stained cells (flow cytometry) (neutrophils after 18 h culture at 37 °C): 51.9% and 32% and 59.2% and 56.9% and 54.7% and 56.2% and 68% and 42.1% and 61.5% and 44.8% and 31.8% and 64.6% and 60.9% and 43.7% and 65.3% and 57.6% and 48% and 40.7% and 35.2% and 65.8% and 72.2% and 52.7% and 70.5% and 46.6%
